We go through 4 substances from US7109167.

The target in assay [1] is endothelial cell receptor for TKPPR on human aortic endothelial cells (HAEC). In words: fluorescent beads on confluent HAEC, static, Experiment 1, image analysis.
The target is the same in assay [2]. Briefly: competition on HAEC: VEGF121 200 ng/ml against 2% BRU-114 bubbles.
Assay [3] shares this target. Briefly: competition on HAEC: VEGF121 400 ng/ml against 2% BRU-114 bubbles.
Assay [4] has the same target. In words: competition on HAEC: VEGF121 100 ng/ml against 2% BRU-114 bubbles.
Assay [5] has the same target. In words: competition on HAEC: KDR/Fc 1000 ng/ml against 5% BRU-114 bubbles.
Assay [6] has the same target. In words: competition on HAEC: KDR/Fc 500 ng/ml against 5% BRU-114 bubbles.
Assay [7] shares this target. In words: competition on HAEC: KDR/Fc 2500 ng/ml against 5% BRU-114 bubbles.
For assay [8] the target is unchanged. Briefly: competition on HAEC: KDR/Fc 250 ng/ml against 5% BRU-114 bubbles.
Assay [9] shares this target. In words: competition on HAEC: KDR/Fc 125 ng/ml against 5% BRU-114 bubbles.
For assay [10] the target is unchanged. In words: competition on HAEC: VEGF165 25 ng/ml against 5% BRU-114 bubbles.
For assay [11] the target is unchanged. In words: competition on HAEC: VEGF165 75 ng/ml against 5% BRU-114 bubbles.
Assay [12] has the same target. Briefly: competition on HAEC: VEGF165 100 ng/ml against 2% BRU-114 bubbles.
Assay [13] shares this target. Briefly: competition on HAEC: VEGF165 12.5 ng/ml against 5% BRU-114 bubbles.
For assay [14] the target is unchanged. Briefly: competition on HAEC: VEGF165 6.25 ng/ml against 5% BRU-114 bubbles.
The target is the same in assay [15]. In words: competition on HAEC: VEGF165 against 5% BRU-114 bubbles.
The target is the same in assay [16]. In words: competition on HAEC: VEGF165 50 ng/ml against 5% BRU-114 bubbles.
Assay [17] has the same target. In words: competition on HAEC: VEGF165 200 ng/ml against 2% BRU-114 bubbles.
For assay [18] the target is unchanged. In words: competition on HAEC: VEGF165 25 ng/ml against 2% BRU-114 bubbles.

As usually defined, the IC50 is the concentration at which inhibition is half-maximal.

Chain of soluble human KDR/Fc chimera (R&D Systems) (P35968 20-764, change not shown): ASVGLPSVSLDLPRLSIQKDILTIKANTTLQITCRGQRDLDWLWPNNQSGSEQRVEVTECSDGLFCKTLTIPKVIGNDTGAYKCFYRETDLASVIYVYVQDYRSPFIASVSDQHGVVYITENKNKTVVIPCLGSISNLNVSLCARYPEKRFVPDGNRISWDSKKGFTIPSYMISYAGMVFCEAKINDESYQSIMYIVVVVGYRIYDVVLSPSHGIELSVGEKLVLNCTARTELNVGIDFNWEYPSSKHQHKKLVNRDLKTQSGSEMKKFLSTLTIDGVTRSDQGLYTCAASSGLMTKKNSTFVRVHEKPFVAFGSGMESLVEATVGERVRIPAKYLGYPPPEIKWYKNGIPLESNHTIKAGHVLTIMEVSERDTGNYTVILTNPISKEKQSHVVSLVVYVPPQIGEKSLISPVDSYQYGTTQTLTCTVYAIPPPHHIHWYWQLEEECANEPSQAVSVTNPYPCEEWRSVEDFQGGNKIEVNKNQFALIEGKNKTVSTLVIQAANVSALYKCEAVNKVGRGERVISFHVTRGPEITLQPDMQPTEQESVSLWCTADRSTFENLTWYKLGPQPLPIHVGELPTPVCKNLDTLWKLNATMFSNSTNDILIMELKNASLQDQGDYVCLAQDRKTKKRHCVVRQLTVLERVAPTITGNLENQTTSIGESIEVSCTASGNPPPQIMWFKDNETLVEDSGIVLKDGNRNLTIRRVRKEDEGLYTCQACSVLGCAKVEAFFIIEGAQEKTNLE

Consider “BSA-conjugated fluorescent microspheres (from UniProt P02769 25-607)”, for which, in assay [1], the Integrated density of bound beads (arbitrary units) was 1.61.
For “VEGF121 (from UniProt P15692 27-147) (ligand)”, the Bubbles Bound is 849 bubbles in assay [2], 778 bubbles in assay [3] and 878 bubbles in assay [4].
Regarding “soluble human KDR/Fc chimera (R&D Systems) (from UniProt P35968 20-764) (Fc fusion)”, the Bubbles Bound in [5] turned out to be 75 bubbles; in [6] it was 342 bubbles; in assay [7], 84 bubbles; in assay [8] it was 786 bubbles; in assay [9] it was 1030 bubbles.
Turning to “VEGF165 (from UniProt P15692 27-191) (ligand)”, the Bubbles Bound amounted to 342 bubbles in assay [10]; 190 bubbles in assay [11]; 94 bubbles in [12]; 599 bubbles in assay [13]; 1180 bubbles in assay [14]; 226 bubbles in assay [16]. Moreover, the Bubbles Bound in [17] was determined as 70 bubbles; in assay [18], 144 bubbles. In addition, the IC50 in assay [15] was 0.0125 µg/mL.
